Data published in patent publication US20190041402A1 (GOVERNING COUNCIL OF THE UNIVERSITY OF TORONTO, published 2019).

Assays:
[1] = biological target: T1, full-length murine βKlotho expressed in HEK293 cells (mouse, UniProt Q99N32 1-1043); assay: immunocytochemistry of transfected HEK293 cells
T1 construct: whole, on cells
T1 sequence (looked up): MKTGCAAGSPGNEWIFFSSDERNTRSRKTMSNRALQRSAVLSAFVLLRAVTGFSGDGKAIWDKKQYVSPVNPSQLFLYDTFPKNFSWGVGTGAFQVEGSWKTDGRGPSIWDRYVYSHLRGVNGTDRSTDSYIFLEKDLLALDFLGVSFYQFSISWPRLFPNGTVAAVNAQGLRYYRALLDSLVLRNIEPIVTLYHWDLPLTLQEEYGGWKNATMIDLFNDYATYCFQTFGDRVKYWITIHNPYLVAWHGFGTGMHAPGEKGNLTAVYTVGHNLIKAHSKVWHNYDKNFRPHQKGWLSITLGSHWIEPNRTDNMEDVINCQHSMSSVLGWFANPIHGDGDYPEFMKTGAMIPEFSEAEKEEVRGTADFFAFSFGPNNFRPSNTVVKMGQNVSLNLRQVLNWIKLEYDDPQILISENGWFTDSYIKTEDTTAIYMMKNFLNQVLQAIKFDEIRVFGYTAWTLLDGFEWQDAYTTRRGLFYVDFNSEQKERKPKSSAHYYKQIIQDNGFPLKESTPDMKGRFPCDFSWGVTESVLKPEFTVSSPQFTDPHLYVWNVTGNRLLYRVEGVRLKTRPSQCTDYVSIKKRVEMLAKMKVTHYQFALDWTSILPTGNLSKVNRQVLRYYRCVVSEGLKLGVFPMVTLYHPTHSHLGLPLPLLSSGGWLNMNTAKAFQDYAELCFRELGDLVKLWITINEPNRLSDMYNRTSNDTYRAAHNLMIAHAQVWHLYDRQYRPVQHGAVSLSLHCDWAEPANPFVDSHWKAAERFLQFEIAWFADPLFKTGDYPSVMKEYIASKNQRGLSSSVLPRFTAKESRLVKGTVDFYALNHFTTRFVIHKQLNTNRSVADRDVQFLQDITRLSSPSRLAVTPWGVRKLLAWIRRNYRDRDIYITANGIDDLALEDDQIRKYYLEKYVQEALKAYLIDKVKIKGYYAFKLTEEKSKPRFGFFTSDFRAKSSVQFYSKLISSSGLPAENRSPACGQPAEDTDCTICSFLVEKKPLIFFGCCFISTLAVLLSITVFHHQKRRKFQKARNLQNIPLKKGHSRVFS

[2] = biological target: T2, extracellular domain (ECD) of human αKlotho, amino acids E34-S981 with C-terminal 6-His tag (R&D Systems … (human, UniProt Q9UEF7 34-981)); assay: SPR, Fab captured by anti-H+L antibody, αKlotho injected
T2 construct: range 34-981; also called αKlotho (aa34-981); target antigen
T2 sequence: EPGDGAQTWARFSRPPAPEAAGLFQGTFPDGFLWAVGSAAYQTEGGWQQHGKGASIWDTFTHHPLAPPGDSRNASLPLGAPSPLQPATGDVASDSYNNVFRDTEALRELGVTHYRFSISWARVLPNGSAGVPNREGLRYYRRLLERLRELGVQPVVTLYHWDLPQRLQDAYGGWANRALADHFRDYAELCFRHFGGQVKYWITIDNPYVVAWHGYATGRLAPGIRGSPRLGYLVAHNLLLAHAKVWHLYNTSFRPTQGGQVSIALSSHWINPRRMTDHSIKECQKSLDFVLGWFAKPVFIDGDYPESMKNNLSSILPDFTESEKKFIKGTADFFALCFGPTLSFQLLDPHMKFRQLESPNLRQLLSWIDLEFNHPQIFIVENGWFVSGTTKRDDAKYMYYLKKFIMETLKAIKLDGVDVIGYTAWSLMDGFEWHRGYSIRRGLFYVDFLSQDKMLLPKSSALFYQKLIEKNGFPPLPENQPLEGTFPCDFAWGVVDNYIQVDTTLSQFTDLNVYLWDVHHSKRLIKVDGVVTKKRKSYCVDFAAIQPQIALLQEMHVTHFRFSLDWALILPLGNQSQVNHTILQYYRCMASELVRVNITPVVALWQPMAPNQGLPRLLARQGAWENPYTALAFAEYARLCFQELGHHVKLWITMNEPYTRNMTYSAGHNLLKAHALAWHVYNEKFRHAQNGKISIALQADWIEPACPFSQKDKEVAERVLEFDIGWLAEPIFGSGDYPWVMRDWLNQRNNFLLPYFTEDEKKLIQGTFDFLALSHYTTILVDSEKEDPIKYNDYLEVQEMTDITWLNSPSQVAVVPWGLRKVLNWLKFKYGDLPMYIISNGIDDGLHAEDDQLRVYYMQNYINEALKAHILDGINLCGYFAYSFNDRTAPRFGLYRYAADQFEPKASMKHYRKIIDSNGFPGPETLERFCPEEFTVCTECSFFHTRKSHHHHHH
Description: Affinity estimates for each of the antibodies were determined by surface plasmon resonance (SPR). Fabs were immobilized using an anti-H+L antibody and serial dilutions of αKlotho were injected.

B1: sb106 Fab (Fab, V domains shown)
VH: EVQLVESGGGLVQPGGSLRLSCAASGFNISYYSIHWVRQAPGKGLEWVAYISPSYGYTSYADSVKGRFTISADTSKNTAYLQMNSLRAEDTAVYYCARYYVYASHGWAGYGMDYWGQGTLVTVSS
VL: DIQMTQSPSSLSASVGDRVTITCRASQSVSSAVAWYQQKPGKAPKLLIYSASSLYSGVPSRFSGSRSGTDFTLTISSLQPEDFATYYCQQAGYSPITFGQGTKVEIKR
notes: also called Fsb106; clone 48
For B1, the binding result [1] was “no binding (tested: 5 µg/ml)” and the Kd [2] was 1.9 nM.
